Experiment: soluble on expression in E. coli; label from the status in PepcDB or PDB records

| Sequence | soluble on expression in E. coli |
| --- | --- |
| KGLAIAADYRNAYRVGGDYYDFIPSNYDRIRSQDDPKLVQCVPWSIVIGDVMGKGVPAGLIMTMTRGMLRAEVLNRHSPAKILEHLNRVMYADLDNSHRFVTLFYSEYDPKTRTLSYSNAAHHPPLLWRAQTQNIEPLDTQGMLIGLDLDSSYEDAKVVLEVGDIILYYTDGFTDAVNSHGDRFDEENLVRVFQNACQNCQTPEAIVQELFTQVEKFTYPKVRGGDDMTLVVVQVQSEAIESHLCQHHDC | not soluble |
| KIGYGKANPTTRLWVGGLGPNTSLAALAREFDRFGSIRTIDHVKGDSFAYIQYESLDAAQAACAKMRGFPLGGPDRRLRVDFAK | soluble |
| KILDACCGSRMFWFDKQNDQVLFMDNRKHYEKLESGHIVAVNPNIVADFRKMPFDDNSFYHVVFDPPHLLRAGSNSWLAKKYGKLNEQTWKEDIQKGFSECMRVLKPNGTLVFKWNEDQIKLSEILSIIDYEPLYGNKRAKTHWLVFMKESEENESNG | soluble |
| KKAITCGEKEKQDLIKSLAMLKDGFRTDRGSHSDLWSSSSSLESSSFPLPKQYLDVSSQTDISGSFGINSNNQLAEKVRLRLRYEEAKRRIANLKIQLAKLDSEAWPGVLDSERDRLILINEKEELLKEMRFISPRKWTQGEVEQLEMARKRLEKDLQAARDTQSKALTERLKLNSKRNQLVRELEEATRQVATLHSQLKSLSSSMQSLSSGSSPGSLTSSRGSLVASSLDSSTSASFTDLYYDPFEQLDSELQSKVEFLLLEGATGFRPSGCITTIHEDEVAKTQKAEGGGRLQALRSLSGTPKSMTSLSPRSSLSSPSPPCSPLMADPLLAGDAFLNSLEFEDPELSATLCELSLGNSAQERYRLEEPGTEGKQLGQAVNTAQGCGLKVACVSAAVSDESVAGDSGVYEASVQRLGASEAAAFDSDESEAVGATRIQIALKYDEKNKQFAILIIQLSNLSALLQQQDQKVNIRVAVLPCSESTTCLFRTRPLDASDTLVFNEVFWVSMSYPALHQKTLRVDVCTTDRSHLEECLGGAQISLAEVCRSGERSTRWYNLLSYKYLKKQSRELKPVGVMAPASGPASTDAVSALLEQTAVELEKRQEGRSSTQTLEDSWRYEETSENEAVAEEEEEEVEEEEGEEDVFTEKASPDMDGYPALKVDKETNTETPAPSPTVVRPKDRRVGTPSQGPFLRGSTIIRSKTFSPGPQSQYVCRLNRSDSDSSTLSKKPPFVRNSLERRSVRMKRPSSVKSLRSERLIRTSLDLELDLQATRTWHSQLTQEISVLKELKEQLEQAKSHGEKELPQWLREDERFRLLLRMLEKRMDRAEHKGELQTDKMMRAAAKDVHRLRGQSCKEPPEVQSFREKMAFFTRPRMNIPALSADDV | soluble |
| KKPDTLWVNKRVVKCPEEVAQQLAVEAGSDVFLLKRIRYVDEEAVSIEESWVPAHLIHDVDAIGISLYDYFRSQHIYPQRTRSRVSARMPDAEFQSHIQLDSKIPVLVIKQVALDQQQRPIEYSISHCR | not soluble |
| KLKPYNSEKILKYAEEVKSLYEKQSEENQEAYLQSIAKLGYEIYIVDDQKNGKRIGNAFRKTSISDDTVHKVLQGETFNGVSTYPTRLFITGFFDNELINSVGVPVKHGDKQYALFIRPDIQNQFGEMR | not soluble |
| KLLAITSCPNGIAHTYMAAENLQKAADRLGVSIKVETQGGIGVENKLTEEEIREADAIIIAADRSVNKDRFIGKKLLSVGVQDGIRKPEELIQKALNGDIPVY | soluble |
| KMFFKVIDTLSDNYEKEMLLLEAEAKEQYYQELEKSSREVRKIKHDLKNMLLAICGKAKKQNEISEEIYKIIKELDESDKKIYTSNVVINTIINHKISQAKKLEIKTDVNIKVSKAIHIDYKDAGILLGNILDNAIEACEKIKKKERWIKIDMLHNKNTLFIEVCNSKGKELTNISKSSKSDAHNHGIGISSIKAITKKYDGYVEFVDKGEEFEVVVNLYGMSF | not soluble |
| KMPSPYSHKEFVKEIAPTAQKLSKIYGVRSSIIIGQAALDSHFGSTLLASKYHNLFSIEASPGQGAVRLKSHEYKNGRWQEVTNRYLVYESWKESLYDYMAILHGNKIWDKALYTTMMTSSGYKTVARALQAAGFNSDPNYADKLIAVIEENNL | soluble |
| KPEPTNSSVEVSPDIYQQVRDELKRASVSQAVFARVAFNRTQGLLSEILRKEEDPRTASQSLLVNLRAMQNFLNLPEVERDRIYQDER | soluble |
| KPPAESASQTAVAITQSSVKTMAPALQAIVDQSWQLQLSASPEMAYGMGDKSAAGKLQDLSPEALAKLNQGQIAILVQLKALDRSKLSKEDKINAQILEDQLQNEVDLYKYKDYYLPITAESGFHAYISSIAQGRFNTQEDYQNYLDKLKALPNYFAQQTYWLKQGLKEGITPPKATLKGFENSISAYILPVEKSSYFKPFTQYPNHFTEAQKAQLTQQGRALVEQNVIPTYQAFYDFMTQEYMPNTRDNIAANSLPNGDAFYENRVRYYTTLDITSAEVHELGLKEVKRIRQEMEQVIKSVGFKGSFADFLYFLRTDPQFYATSADQLLKEAAFIAKKADATLPKYFGKLPRKPYGIAPVPAEIAPKYTSGRYSGSNRDDEPGYYWVNTYALDKRPLYELEALTLHEAVPGHHLQISLNSELSSQPDFRRYSYISAFGEGWGLYSEYLGLEAGFYQDPYSNFGRLTYEMWRAARLVVDTGMHAQGWSREQAIEFMANNTALSLHNVTTEIDRYITWPGQALSYKIGELTIKRLRAKAEQALGDKFDIRAFHDAVLENGSVPMSVLEQQINDFIEAKKAA | soluble |
| KRGPSAVTVVTEQVETHEINQSLSLIGKLKAAESVVVASEVAGKVKQIAVKANQNVQQNQLLIQLDDDKAQAALVEAKAYLKDEERKLKEFQRLVKRNAITQTEIDAQKASVEIAQARLDAAKANLADLHITAPFSGTVGFIDFSRGKMVSAGTELLTLDDLSVMELDLQIPERYLSMLSVGMEVAAKTSAWGEQRFSGKVTGIDTRISAETLNLRVRIEFDNPENQLKPG | not soluble |
| KRGRSVLVLDHAKKPGRKILISGGGRCNFTNYDVSASNYLCQNPHFVKSALSQYTNWDFISMVSKHGIEFEERDHGQLFCVDAFTAKDIVKMLLAECDMPNIQQRYQCDVHTIEKTEEGFRLHAGTEPVECESLVVATGGLSMPKLGATPFGYKVAEQ | not soluble |
| KRGTDLGRPINATFDFFSRLFSKRKNVHMTFFNSSTPLDVNYTPNQQEIDTILDKISRSGYESLTKEEKQKLFKASQK | not soluble |
| KTAFTAEVLAQSFSGEVQKLSSLVLPAEVIIAQSSIPGEGLGIFSKTWIKAGTEMGPFTGRVIAPEHVDICKNNNLMWEVFNEDGTVRYFIDASQEDHRSWMTYIKCARNEQEQNLEVVQIGTSIFYKAIEMIPPDQELLVWYGNSHNTFLGIPGVPGLEEDQKKNKHED | soluble |
| KVGILQFVTHDALDQIEKGIEDGLKEAGYKGDKVQITLLNAEGDQSKIQTMSKQLVNDKNDVVIGIATPAAQGLAAATKDIPVIMGAISDPVGAKLVKNLKHPEGNVTGTSNQVPIKQTVELVKSLTPNAKTIGILYASSEDNSQSQVESFKKYAEQDGLNVIEYAVPSTNEINTTMSVMTGKVDAIWTPQDNTIASSFSTVISLANQAKIPVYTTVDTMVKEGGLASVAQNQYELGKATARSAIKVLKGKKVKDIPVDVIDDGTPTLNLKVARDLNITIPDDVLKQSDIAVKADK | not soluble |
| KVGLIIISHGRIATETVNVVKELLGVKFPVAIDMPLDEKPINIYNKAVELSKIIDQGKGILFLVDIGSLTNIGQIVNKRTNISTKTIDRVDLLMALEATRKVSMGEEELDEIFFSLLKDRMGYNYELEKHIDKS | not soluble |
| LCPDAVAGIAVAAPHIYVEDITVANIAVALRAYRETTLRDRLARYHDDVDSTFASWTDTWLDPAFRQWNIEAYLPAITCPMLAMQGVDDEYGTLEQIRGIRRLAPQTRLLEIQDCGHSPHKDQPELVTRALAGFV | not soluble |
| LDRQTERLQQGEVDVRFNMVSRMLDHPDLAERWPHLQGKLDNLSQEYELIRFWIDSDDPRYHYGRFSEPVQRLIADGAGRYELELPEHRYALTARVGVLPAREGRPRLTYVTAIDSAAFHEARTSTLKW | not soluble |
| LDSANQQASNESIEVRGKIKLGLLPETYEHLQPILFEFQDQYPQVELDIRNINNGFIDMFQQGLDIALHGGMLFDSDIVARKILTLDRCVVASPNYLQTHGTPATLEELSDHQCICFRWPNGNVDNLWHFQEQNVALKPKLISNNIGFIKSSTVLDRGISYIPKLLVKNELESGALVQVLSQYAVTEETGWLLYPQPKTLNQASRLLIEHLCNKIPKLL | soluble |

Reference: the DeepSol protein solubility set
